Earlier results in publication PMC2363349.

Target: TGF-βRII (Homo sapiens) (UniProt P37173)
Sequence (P37173 23-166): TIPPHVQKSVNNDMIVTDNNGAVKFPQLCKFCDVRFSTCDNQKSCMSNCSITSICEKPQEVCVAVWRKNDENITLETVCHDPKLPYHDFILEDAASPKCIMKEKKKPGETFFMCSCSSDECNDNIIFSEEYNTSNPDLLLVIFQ

TGF-β1, sequence (P01137 279-390): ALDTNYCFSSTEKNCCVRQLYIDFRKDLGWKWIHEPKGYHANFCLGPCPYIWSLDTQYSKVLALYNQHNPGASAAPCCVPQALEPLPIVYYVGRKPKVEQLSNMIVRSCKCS

Kd: 0.5 nM
Substance: TGF-β1 (from UniProt P01137)
